Laboratory results from the supplement of paper PMC6757056.
± gives the standard deviation of the averaged measurements.

B1: library; a variant is named by its letters at N, in order (parent)
chain: GCUGUCACCGAGAAACUGUGAAGUAUAUCUUAAACCUGGGCACUUAAAAGAUAUAUGGAGUUAGUAGUGCAACCUGCUCGGUCUGAUGAGUCCNNNNNNGGACGAAACAGC

Experiments:
cyclic di-GMP [1] = variants of: B1; test: normalized RNA/DNA level without ligand (relative to sTRSVctl = 100) (log10 (% of sTRSVctl)); HEK293T; ligand: cyclic di-GMP (c-di-GMP-II aptamer); higher = less ribozyme self-cleavage, higher mRNA level; settings: reporter: mCherry (pCS4076), ligand present: no
How it was run: (§1)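 HEK293T cells received ligand, where used, 1 h before being transfected with 4 µg per 6-well well of library plasmids encoding reporter-linked ribozyme switches. After 72 h, RNA was extracted with EDTA and sequenced. RNA level was derived from RNA reads per DNA read, normalized to a spiked-in non-cleaving sequence or the top sequences, then scaled and log-transformed. Values were ×100 then log10, the top set was 25 sequences, and the minimum was 100 DNA reads.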

cyclic di-GMP [2] = variants of: B1; test: normalized RNA/DNA level with ligand (relative to sTRSVctl = 100) (log10 (% of sTRSVctl)); HEK293T; ligand: cyclic di-GMP (c-di-GMP-II aptamer); ligand concentration (+) RNA-Seq: 1 mM; higher = less ribozyme self-cleavage, higher mRNA level; settings: reporter: mCherry (pCS4076), ligand present: yes
How it was run: as §1

Variant | normalized RNA/DNA level without ligand (log10) (cyclic di-GMP [1]) | normalized RNA/DNA level with ligand (log10) (cyclic di-GMP [2])
AAUUUU | 1.73 ± 0.033 | 1.85 ± 0.12
GAUUUU | 1.656 ± 0.01 | 1.81 ± 0.14
ACAAGG | 1.33 ± 0.17 | 1.54 ± 0.098
GCAGGC | 1.58 ± 0.032 | 1.71 ± 0.025
GCAGGG | 1.6 ± 0.05 | 1.74 ± 0.082
GCAGGA | 1.4 ± 0.075 | 1.56 ± 0.091
CCAGAU | 1.65 ± 0.025 | 1.81 ± 0.12
CCAGAG | 1.42 ± 0.049 | 1.62 ± 0.17
UCAGAG | 1.53 ± 0.045 | 1.69 ± 0.042
UCAGAC | 1.63 ± 0.017 | 1.76 ± 0.13
UCAGAA | 1.35 ± 0.17 | 1.65 ± 0.14
CCAAAA | 1.35 ± 0.091 | 1.62 ± 0.079
CCAAAG | 1.41 ± 0.056 | 1.61 ± 0.1
GCAACG | 1.54 ± 0.046 | 1.78 ± 0.11
GCAACC | 1.647 ± 0.0045 | 1.79 ± 0.097
GCAACU | 1.582 ± 0.0092 | 1.77 ± 0.13
CCAGGU | 1.69 ± 0.061 | 1.82 ± 0.081
CCAGGG | 1.52 ± 0.025 | 1.77 ± 0.12
CCAGGA | 1.5 ± 0.088 | 1.71 ± 0.12
ACAACG | 1.46 ± 0.1 | 1.65 ± 0.12
ACAACC | 1.67 ± 0.02 | 1.82 ± 0.1
ACAACA | 1.46 ± 0.076 | 1.68 ± 0.099
UCAAUC | 1.63 ± 0.01 | 1.8 ± 0.12
CCACAA | 1.51 ± 0.032 | 1.7 ± 0.11

Variant | normalized RNA/DNA level without ligand (log10) (cyclic di-GMP [1]) | normalized RNA/DNA level with ligand (log10) (cyclic di-GMP [2])
CCACAG | 1.54 ± 0.028 | 1.75 ± 0.18
CCACAC | 1.65 ± 0.037 | 1.79 ± 0.073
ACACGC | 1.554 ± 0.0051 | 1.76 ± 0.13
ACACGU | 1.62 ± 0.043 | 1.83 ± 0.081
UCAGCA | 1.672 ± 0.004 | 1.82 ± 0.097
UCAGCU | 1.671 ± 0.0017 | 1.82 ± 0.15
UCAGCC | 1.818 ± 0.0024 | 1.88 ± 0.14
ACACCU | 1.63 ± 0.031 | 1.81 ± 0.078
ACACCA | 1.59 ± 0.029 | 1.76 ± 0.11
ACACCC | 1.73 ± 0.012 | 1.86 ± 0.069
ACACAA | 1.41 ± 0.056 | 1.66 ± 0.16
ACACAC | 1.633 ± 0.0097 | 1.81 ± 0.09
ACACAU | 1.46 ± 0.06 | 1.67 ± 0.092
ACAGGU | 1.42 ± 0.16 | 1.64 ± 0.07
ACAGGG | 1.5 ± 0.11 | 1.58 ± 0.15
ACAGGC | 1.5 ± 0.065 | 1.68 ± 0.11
ACAGGA | 1.3 ± 0.067 | 1.41 ± 0.16
CCACCC | 1.798 ± 0.016 | 1.87 ± 0.097
CCACCG | 1.74 ± 0.078 | 1.89 ± 0.14
CCACCA | 1.7068 ± 0.0011 | 1.82 ± 0.11
UCAAGC | 1.63 ± 0.031 | 1.76 ± 0.1
UCAAGG | 1.8 ± 0.067 | 1.89 ± 0.12
UCAAGU | 1.52 ± 0.048 | 1.73 ± 0.1
UCAAGA | 1.52 ± 0.0098 | 1.74 ± 0.098

Variant | normalized RNA/DNA level without ligand (log10) (cyclic di-GMP [1]) | normalized RNA/DNA level with ligand (log10) (cyclic di-GMP [2])
CCACUC | 1.7 ± 0.022 | 1.8 ± 0.1
CCACUG | 1.39 ± 0.042 | 1.63 ± 0.12
GCAGCC | 1.6725 ± 0.00097 | 1.83 ± 0.14
GCAGCG | 1.83 ± 0.035 | 1.92 ± 0.072
GCAGCA | 1.82 ± 0.022 | 1.89 ± 0.092
UCAGGU | 1.58 ± 0.12 | 1.76 ± 0.12
UCAGGC | 1.71 ± 0.027 | 1.84 ± 0.11
UCAGGG | 1.64 ± 0.023 | 1.81 ± 0.12
UCAGGA | 1.45 ± 0.071 | 1.67 ± 0.099
CCACGC | 1.66 ± 0.022 | 1.83 ± 0.12
CCACGG | 1.79 ± 0.058 | 1.89 ± 0.037
CCACGU | 1.64 ± 0.046 | 1.81 ± 0.13
CCACGA | 1.6 ± 0.04 | 1.74 ± 0.086
GCACGU | 1.49 ± 0.07 | 1.7 ± 0.12
GCACGG | 1.55 ± 0.053 | 1.66 ± 0.12
GCACGC | 1.66 ± 0.027 | 1.78 ± 0.2
GCAAUU | 1.48 ± 0.086 | 1.69 ± 0.1
UCAACG | 1.77 ± 0.024 | 1.89 ± 0.096
UCAACU | 1.707 ± 0.0018 | 1.86 ± 0.069
UCAACC | 1.78 ± 0.044 | 1.9 ± 0.067
UCAACA | 1.708 ± 0.0058 | 1.81 ± 0.096
GCACCU | 1.6643 ± 0.00076 | 1.85 ± 0.14
GCACCA | 1.586 ± 0.0036 | 1.75 ± 0.11
GCACCG | 1.72 ± 0.037 | 1.86 ± 0.11

Variant | normalized RNA/DNA level without ligand (log10) (cyclic di-GMP [1]) | normalized RNA/DNA level with ligand (log10) (cyclic di-GMP [2])
GCACCC | 1.66 ± 0.027 | 1.84 ± 0.075
CCAAGG | 1.688 ± 0.013 | 1.8 ± 0.1
CCAAGC | 1.59 ± 0.059 | 1.76 ± 0.13
CCAAUU | 1.58 ± 0.06 | 1.72 ± 0.086
CCAAUC | 1.55 ± 0.1 | 1.71 ± 0.1
UCACUG | 1.632 ± 0.0038 | 1.81 ± 0.16
UCACUC | 1.73 ± 0.068 | 1.89 ± 0.12
UCACUA | 1.51 ± 0.022 | 1.73 ± 0.099
ACAGCU | 1.55 ± 0.062 | 1.73 ± 0.12
ACAGCA | 1.66 ± 0.046 | 1.75 ± 0.095
ACAGCC | 1.66 ± 0.027 | 1.84 ± 0.1
ACACUU | 1.47 ± 0.091 | 1.72 ± 0.092
ACACUG | 1.48 ± 0.04 | 1.68 ± 0.077
ACACUC | 1.637 ± 0.0033 | 1.77 ± 0.11
CCAGCC | 1.762 ± 0.0075 | 1.86 ± 0.13
CCAGCG | 1.76 ± 0.036 | 1.91 ± 0.097
CCAGCU | 1.682 ± 0.011 | 1.86 ± 0.084
GCACUG | 1.54 ± 0.092 | 1.75 ± 0.074
UCACCU | 1.7414 ± 0.00048 | 1.89 ± 0.12
UCACCG | 1.75 ± 0.024 | 1.89 ± 0.12
UCACCC | 1.83 ± 0.032 | 1.88 ± 0.096
ACAGAC | 1.49 ± 0.056 | 1.71 ± 0.049
ACAAAC | 1.55 ± 0.084 | 1.72 ± 0.091
ACAAAG | 1.4 ± 0.073 | 1.6 ± 0.06

Variant | normalized RNA/DNA level without ligand (log10) (cyclic di-GMP [1]) | normalized RNA/DNA level with ligand (log10) (cyclic di-GMP [2])
GCAGAU | 1.43 ± 0.093 | 1.6 ± 0.083
GCAGAC | 1.42 ± 0.068 | 1.59 ± 0.079
UAUUUU | 1.73 ± 0.062 | 1.84 ± 0.13
GCAAGA | 1.33 ± 0.12 | 1.54 ± 0.1
GCAAGU | 1.39 ± 0.16 | 1.64 ± 0.082
GCAAGG | 1.41 ± 0.14 | 1.57 ± 0.11
UCACGC | 1.7 ± 0.045 | 1.84 ± 0.08
UCACGG | 1.82 ± 0.07 | 1.9 ± 0.1
GCACAG | 1.58 ± 0.061 | 1.71 ± 0.14
CCAACG | 1.71 ± 0.049 | 1.85 ± 0.1
CCAACU | 1.56 ± 0.0039 | 1.75 ± 0.15
CCAACA | 1.53 ± 0.029 | 1.72 ± 0.13
GCAAAA | 1.35 ± 0.18 | 1.59 ± 0.078
UCAAAU | 1.5 ± 0.063 | 1.71 ± 0.092
UCAAAC | 1.63 ± 0.026 | 1.8 ± 0.079
UCAAAG | 1.602 ± 0.012 | 1.77 ± 0.12
UCACAG | 1.667 ± 0.0019 | 1.83 ± 0.083
UCACAA | 1.547 ± 0.011 | 1.72 ± 0.087
UCACAC | 1.7 ± 0.0024 | 1.81 ± 0.13
UCACAU | 1.58 ± 0.048 | 1.78 ± 0.087
